Experimental data published in US20240024477A1.

Target: HLA-E bound RL9 presented on cells with their own HLA-E (RL9 pulsed autologous B cells (human; HIV-1) (UniProt P13747)
Experiment: cell-based or functional assay

irrelevant TCR specific for HLAA*0201-NY-ESO-1157-165 (…) (IG4), transduced into CD8 T cells
reduction of % p24+ cells, HIV-1 NL4.3-infected primary CD4+ T cells, E:T 5:1: 23.5%
